Results from paper PMC3958441, “Isl1 and Pou4f2 Form a Complex to Regulate Target Genes in Developing Retinal Ganglion Cells” (PLoS ONE, 2014).

B1: Pou4f2 expressed in HEK 293 cells (natural protein, mouse, UniProt Q63934 1-411, looked up)
chain: MMMMSLNSKQAFSMPHAGSLHVEPKYSALHSASPGSSAPAAPSASSPSSSSNAGGGGGGGGGGGGGGRSSSSSSSGSGGSGGGGGSEAMRRACLPTPPSNIFGGLDESLLARAEALAAVDIVSQSKSHHHHPPHHSPFKPDATYHTMNTIPCTSAASSSSVPISHPSALAGTHHHHHHHHHHHHQPHQALEGELLEHLSPGLALGAMAGPDGTVVSTPAHAPHMATMNPMHQAALSMAHAHGLPSHMGCMSDVDADPRDLEAFAERFKQRRIKLGVTQADVGSALANLKIPGVGSLSQSTICRFESLTLSHNNMIALKPILQAWLEEAEKSHREKLTKPELFNGAEKKRKRTSIAAPEKRSLEAYFAIQPRPSSEKIAAIAEKLDLKKNVVRVWFCNQRQKQKRMKYSAGI
B2: Pou4f2D5 (a.a. 125-411) (domain or fragment, mouse, UniProt Q63934 125-411, looked up)
chain: SKSHHHHPPHHSPFKPDATYHTMNTIPCTSAASSSSVPISHPSALAGTHHHHHHHHHHHHQPHQALEGELLEHLSPGLALGAMAGPDGTVVSTPAHAPHMATMNPMHQAALSMAHAHGLPSHMGCMSDVDADPRDLEAFAERFKQRRIKLGVTQADVGSALANLKIPGVGSLSQSTICRFESLTLSHNNMIALKPILQAWLEEAEKSHREKLTKPELFNGAEKKRKRTSIAAPEKRSLEAYFAIQPRPSSEKIAAIAEKLDLKKNVVRVWFCNQRQKQKRMKYSAGI
notes: Pou4f2, mouse, a.a; 125-411, POU and homeo domains intact; source: E. coli, in lysate (pull-down); purified on His SpinTrap columns (EMSA); not shown: His tag, C-terminal, kept
B3: Isl1D3 (a.a. 170-349) (domain or fragment, mouse, UniProt P61372 170-349, looked up)
chain: LRPHVHKQPEKTTRVRTVLNEKQLHTLRTCYAANPRPDALMKEQLVEMTGLSPRVIRVWFQNKRCKDKKRSIMMKQLQQQQPNDKTNIQGMTGTPMVAASPERHDGGLQANPVEVQSYQPPWKVLSDFALQSDIDQPAFQQLVNFSEGGPGSNSTGSEVASMSSQLPDTPNSMVASPIEA
notes: Isl1, mouse, a.a; 170-349, only the homeodomain and the C terminal region, none of the Lim domains; source: E. coli, in lysate (pull-down); purified on His SpinTrap columns (EMSA); not shown: His tag, C-terminal, kept
B4: Isl1D4 (a.a. 146-349) (domain or fragment, mouse, UniProt P61372 146-349, looked up)
chain: PLSPLHPARPLQMAAEPISARQPALRPHVHKQPEKTTRVRTVLNEKQLHTLRTCYAANPRPDALMKEQLVEMTGLSPRVIRVWFQNKRCKDKKRSIMMKQLQQQQPNDKTNIQGMTGTPMVAASPERHDGGLQANPVEVQSYQPPWKVLSDFALQSDIDQPAFQQLVNFSEGGPGSNSTGSEVASMSSQLPDTPNSMVASPIEA
notes: Isl1, mouse, a.a; 146-349; source: E. coli, in lysate (pull-down); purified on His SpinTrap columns (EMSA); not shown: His tag, C-terminal, kept
B5: Isl1D5 (a.a. 74-349) (domain or fragment, mouse, UniProt P61372 74-349, looked up)
chain: LYGIKCAKCSIGFSKNDFVMRARSKVYHIECFRCVACSRQLIPGDEFALREDGLFCRADHDVVERASLGAGDPLSPLHPARPLQMAAEPISARQPALRPHVHKQPEKTTRVRTVLNEKQLHTLRTCYAANPRPDALMKEQLVEMTGLSPRVIRVWFQNKRCKDKKRSIMMKQLQQQQPNDKTNIQGMTGTPMVAASPERHDGGLQANPVEVQSYQPPWKVLSDFALQSDIDQPAFQQLVNFSEGGPGSNSTGSEVASMSSQLPDTPNSMVASPIEA
notes: Isl1, mouse, a.a; 74-349; source: E. coli, in lysate (pull-down); purified on His SpinTrap columns (EMSA); not shown: His tag, C-terminal, kept
B6: Isl1, full-length, His-tagged (natural protein, mouse, UniProt P61372 1-349, looked up)
chain: MGDMGDPPKKKRLISLCVGCGNQIHDQYILRVSPDLEWHAACLKCAECNQYLDESCTCFVRDGKTYCKRDYIRLYGIKCAKCSIGFSKNDFVMRARSKVYHIECFRCVACSRQLIPGDEFALREDGLFCRADHDVVERASLGAGDPLSPLHPARPLQMAAEPISARQPALRPHVHKQPEKTTRVRTVLNEKQLHTLRTCYAANPRPDALMKEQLVEMTGLSPRVIRVWFQNKRCKDKKRSIMMKQLQQQQPNDKTNIQGMTGTPMVAASPERHDGGLQANPVEVQSYQPPWKVLSDFALQSDIDQPAFQQLVNFSEGGPGSNSTGSEVASMSSQLPDTPNSMVASPIEA
notes: Isl1, mouse, full-length coding region in pET-28a(+); 349 a.a; source: E. coli, in lysate (pull-down); purified on His SpinTrap columns (EMSA); not shown: His tag, C-terminal, kept
B7: SBRN3(M) (dsDNA)
DNA 1: GCACACGACCCAGCGCGTTGACAACCGGGCTG
DNA 2: GCAGCCCGGTTGTCAACGCGCTGGGTCGTGTG
B8: EBF3(W) (dsDNA)
DNA 1: GTGCGTTAATATTTTAATTAATCGGGAAAA
DNA 2: TTTTCCCGATTAATTAAAATATTAACGCAC
B9: EBF3(M) (dsDNA)
DNA 1: GTGCGTTGCTATTTTCGTTGCTCGGGAAAA
DNA 2: TTTTCCCGAGCAACGAAAATAGCAACGCAC
B10: IRX6(W) (dsDNA)
DNA 1: GTACTACTAATTAATTAATTGCAAACATTTC
DNA 2: GGAAATGTTTGCAATTAATTAATTAGTAGTA
B11: IRX6(M) (dsDNA)
DNA 1: TACTACTGCTTCGTTGCTTGCAAACATTTC
DNA 2: GGAAATGTTTGCAAGCAACGAAGCAGTAGTA
B12: CBRN3(M) (dsDNA)
DNA 1: GATCTCTCCTGCGCGGTTGACTACCCCCGGAT
DNA 2: GATCCGGGGGTAGTCAACCGCGCAGGAGAGAT

Assays:
[1] = target: T1, Isl1 expressed in HEK 293 cells (mouse, UniProt P61372 1-349); experiment: cell-based or functional assay
T1 sequence (looked up): B6 chain

[2] = target: B6; experiment: native gel or EMSA; EMSA with purified His-tagged proteins (200 ng each) and radiolabelled DNA probes (SBRN3, CBRN3; Ebf3 and Irx6 for Isl1 with Pou4f2D5); protein-protein complex read from a slower migrating ternary complex on DNA; 20 mM Tris-HCl pH 7.5, 0.05 M NaCl, 10 mM DTT, 1 mM EDTA, 5% glycerol, 4 C; settings: both partners purified
[3] = target: T2, Pou4f2, full-length, His-tagged (mouse, UniProt Q63934 1-411); experiment: as above; settings: both partners purified
T2 construct: Pou4f2 (Brn3b), mouse, full-length coding region in pET-28a(+); 411 a.a; also called Brn3b; source: E. coli, in lysate (pull-down); purified on His SpinTrap columns (EMSA); not shown: His tag, C-terminal, kept
T2 sequence (looked up): B1 chain

Pou4f2 (Brn3b) = target: T3, Pou4f2 (Brn3b) (mouse, UniProt Q63934 1-411); experiment: EMSA; EMSA: 20 mM Tris-HCl pH 7.5, 50 mM NaCl, 10 mM DTT, 1 mM EDTA, 5% glycerol, 200 ng dI/dC, 200 ng each protein in 20 ul, 4 C, 30 min; 8% PAGE, 1x TBE, 4 C; settings: protein: recombinant; tags: His (C-terminal, pET-28a); (radiolabel, Klenow fill-in); 5' overhang 1 nt at both ends before fill-in
T3 sequence: B1 chain

Isl1 = target: T4, Isl1 (mouse, UniProt P61372 1-349); experiment: as above; settings: protein: recombinant, tags: His (C-terminal, pET-28a)
T4 sequence: B6 chain

Pou4f2D5 = target: T5, Pou4f2D5 (mouse, UniProt Q63934 125-411); experiment: as above; settings: protein: recombinant, tags: His (C-terminal)
T5 sequence: B2 chain

[4] = (radiolabel, Klenow fill-in), 5' overhang 1 nt at both ends before fill-in
[5] = (radiolabel, Klenow fill-in), one end blunt, lower strand 5' overhang 1 nt before fill-in

Q: Which “luciferase reporter with the CBRN3 motif in HEK 293 cells, both expression constructs co-transfected, fold increase from the control (each factor alone about 2.5 fold)” value [1] does the source give for B1 here?
A: ~3.5 fold

Q: Does B2 bind [2]?
A: binds

Q: Does B3 bind [3]?
A: binds

Q: Does B4 bind [3]?
A: binds

Q: Does B5 bind [3]?
A: binds

Q: Does B6 bind [3]?
A: binds

Q: Does B7 bind (Pou4f2 (Brn3b))?
A: no binding

Q: Does B7 bind (Isl1; [4])?
A: no binding

Q: What does the source list for B8?
A: binding result (Isl1; (radiolabel, Klenow), blunt): binds; binding result (Pou4f2D5; (radiolabel, Klenow), blunt): binds

Q: Does B9 bind (Isl1; (radiolabel, Klenow), blunt)?
A: no binding

Q: Does B9 bind (Pou4f2D5; (radiolabel, Klenow), blunt)?
A: no binding

Q: Does B10 bind (Isl1; [4])?
A: binds

Q: Does B10 bind (Pou4f2D5; [4])?
A: binds

Q: What does the source list for B11?
A: binding result (Isl1; [5]): no binding; binding result (Pou4f2D5; [5]): no binding

Q: Does B12 bind (Pou4f2 (Brn3b))?
A: no binding

Q: Does B12 bind (Isl1; [4])?
A: no binding
